Source: the nanobody polyreactivity screen of Harvey et al. (2022)

experiment: yeast display, Sf9 membrane polyspecificity reagent, FACS + sequencing; frameworks hold sequencing errors
Procedure, shortened: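 In a synthetic yeast display library (Saccharomyces cerevisiae BJ5465), nanobody expression was induced with galactose for 36–48 hours. FACS gates were set low and high (top ~1%) using anti-HA fluorescence for expression and streptavidin fluorescence for binding of the Sf9 membrane reagent. Each polyreactivity label is drawn from the gate of origin.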

Row | Sequence | polyreactivity (PSR sort gate)
1 | QVQLVESGGGLVQAGGSLRLSCAASGNTFYRYAMGRYRQAPGKEREFVAGITSRGGSTSYADSVKGRFTISRDSAKNTVYLQMNILKPEDTAVYYCAARYSKVHFAYDYWGQGTQVTVSS | high polyreactivity
2 | QVQRVESGGGLVQAGGSLRLSFAASGSTDGRYARGWYSQAPVQDTELVAAITRNGGRTYYADSVKGCFTISRDNAKNTVYLQMNSLKPEHTADEYCAASGRSQYGDYDDWGQGSQVTVSS | high polyreactivity
3 | QVQLVESGGGLEQAGGSLRLTWAASGRIFYVYAMGLYIQAPGKERELVAAITWRGGTTYYADSVKGRFTISRDNAQNTVYLEMNSLKPEDTAVYYCNAKYFRSYYSIEYDYWGQGTQVTVSS | low polyreactivity
4 | QVQLVESVVGLVQAGGSLRLSCASSGSTFGANAMGRYRQAPGKEREFLAAISRSGVRTYYADSVKGRFTISRDNAKKTVYLQMNSLKPEDTAVYYCAADGYWWTYTRYDYWGQGTQVTVSS | low polyreactivity
5 | QVQLVESGGGLVQAGGSLRLSCAASGRIFRNNAMGWYRQAPGKERELVAAITWSGGSTYYADSVKGRFTISRDNAKNTVYLQMNSLKPEDTAVYYCNAGRGYKYSYTYDYWGQGTQVTVSS | low polyreactivity
6 | QVQLVESGGGLVQAGGSLRLSCAASGRIFDDNAMGWYRQAHGKERELVATISSTGGRTYYADSVKGRFTISRDNAKKTVYLQMNSLKPEDTAVYYCAARRLQGGYYYWGQGTQVTVSS | high polyreactivity
7 | QVQLVESGGGLVQAGGSLRLSCAASGSIFGYNAMGWSRQAPGKERELVAGITSGTSTNYADSVKGRFTISRDNAKNTVYLQMNSLKPEDTEVYYCARTSYRFYRKRYYWGQGTQVTVSS | high polyreactivity
8 | QVQLVESGGGLVQAGGSLRLSCAASGFISAYNAMGWYRPAPGKERELVAAITSGATTKYADSVKGRFTISRDNAKNTVYFQMHSLKPEDTAVYYCAAAPKRRYYVHSGGAYGYWGQGTQVTVSS | high polyreactivity
9 | QVQLVESGGGLVKAGGSLRLSCAASGRTFQVYDMGWYRQAPGKERELVAGITRAGSTYYADSVKGRFTISRDNAKNSVYLQMNRLKPEDSAVYYCAASRWHGYNYWGQGTQVTVSS | high polyreactivity
10 | QVQLVESGGGLVQAGGSLRLSCDASGFISRYAMGWYRQAPGKERELVAAINRSGGRTYYADSVKGRFTISRDNAKNTVYLQMNSLTPEDTAVYYCAALRGRYYGVLGEYWGQCTQVTVSS | high polyreactivity
11 | QVQLVESGGGLVQAGGSLRLSCAASGRIFQYNAMGWYRQAPGKERELVAAIRRGGGSTYYADSVKGRFTISRDNAKNTVYLEMNSLKPEDTAVYYCAARRIRVSFYPEYDYWGQGTQVTVSS | low polyreactivity
12 | QVQIVESGGGLVQAGGSLRLSCAASGIIFRYYAMGWYRQAPGKERELVAAISSSGVSTYYADSVKGRFTISRDYAKNTVYLQMNSLKPEDTAVYYCAAVTTWRIDYWGQGTQVNVSS | high polyreactivity
13 | QVQLVESGGGLVQAGGSLRLSCAASGYTFPDYAMGWYRQAPGKERELVADITSAGNTYYADSVKGRFTISRDNAKNTVYLQMNSLKPEDTAVYYCNKDDLWENGISYSSPYRLDHWGQGTQVTVSS | low polyreactivity
14 | QVQLVESGGGLVQAGGSLRLSCAASGIIFSRYAMGWYRQAPGKERELVAAISSSGGTTYYADSVKGRFTISRDNAKNTVYLQMNSLKPEDTAVYYCYAPAFYKYKSFYAHSGYDYWGQGTQVTVSS | high polyreactivity
15 | QVQLVESGGGLVQAGGSLRLSCAASGSTFNINAMGWYRQAPGKERELVADITSGGSTNYADSVKGRFTISRDNAKNTVYLQMNSLKPEDTAVYYCNADVLYGDSYRGGYCGQGTQVTVSS | low polyreactivity
16 | QVQLVESGGGLVQAGGSLRLSCAASGSTFFWYAMGRYRQAPGKERELVAAISKTGGSTYYADSVKGRFTISRDNAKNTFYLQMNSLKPEDTAVYYCNAVPYASKAARSFDYWGQGTQVTVSS | low polyreactivity
17 | QVQLVESGGGLVQAGGSLRLSSAASGSTFRYNAMGWYRQAPGKERELVAAITSTGDSTYYADSVKGRFTISRDNAKNTVYLQMNSLKPEDTAVYYCAARSYASPGWRYEYWGQGTQVTVSS | low polyreactivity
18 | QVQLVESGGGLVQAGGSLRLSCAASGGTFSPNTMGWYRHAPGKERELVAAISSSGSTSYADSVKGRFTISRDNAKNTVYLQMNSLKPEDTAVYYCNADDTISYYASGFDNYDYWGQGSQVTVSS | low polyreactivity
19 | QDQIVDSGGGLVQAGVSLRLSCAASGFTFGINTLGWYRQAPGKERELVAGISRTSSTYADSVKGRFTISRDNAKNTVYLQMNSLNAEDTAVYYCAAEYFQTRFGSWRKRYVSWGQGTQVTVSS | high polyreactivity
20 | QVQLVESGGGLVQAGGSLRLSCAASGSIFLYNAMGWYRQAPGKERELVAAIRGSDGITFYADSVKGRFTISRDNAKNTVYLQMNSLKPEDTAVYYCAKDTYRSPRHDYGYWGQGTQVTVSS | low polyreactivity
21 | QVQLLESGGGLVQAGASLRLSCAASGSICWVYDMGWYRQAPGKERELVAAISQSGGSTYYADSVKGRFTISRDNAKNTVYFQMNSLKPEDTAGYYCAAYVRGQNYDYWGQGTQVTVSS | high polyreactivity
22 | QVQLVESGGGLVKAGGSLRLSCAASGSIFAFYAMGWYRPAPGKERELVAAINSGGGRTYYEDSVKGRFTISRDNAKYTVYLQMNSLKPEDTAVYYCAARTIHGSNRSYYWGQGTQVTVSS | high polyreactivity

Row | Sequence | polyreactivity (PSR sort gate)
23 | QVQLVESGGGLVQAGGSLRLSCAASGRTFTTNAMGWYRQAPGKERELVAAISRRGGSTYYADSVKGRFTISRDNAKNTVYLQMNSLKPEDTAVYYCYAHLWIRGYDYWGQGTQVTVSS | high polyreactivity
24 | QVQLVESGGGLVQAGGSLRLSCAASGRTFGVYVKGWYRQAPGKERELVAAIDDSGGSTYYADSVKGRFTISRDNAKNTVYLQMNSLKPEDTAVYYCAKTKTQYLTSEIRFDYWGQGTQVTVSS | low polyreactivity
25 | QVQLVESGGGLVQAGGSLRLSCAASGITFYTYAMGWYRQAPGKERELVAAITGTGTSTYYADSVKGRFTISRDNAKNTVYLQMNSLKPEDTAVYYCAAYKRGLPVKRDSWGQGTQVTVSS | high polyreactivity
26 | QVQLVESGGGLVQSGGSLRLSCAASGIIFCRYAMGWYRQAPGKERELVATITWRGGSTYDADSVKGRFTISRDNAKNTVYLQMNSLKPEDTAVYYCAADNRQSRSFRARAYWGQGNQVTVSS | low polyreactivity
27 | QVELVESGAGLVQAGGSLRLSCAASGRIFRYYVKGWYRQAPGKESELVAAISSGGSTNYADSVKGRFTISRDNAKNTVYLQMNSLKPEDTAVYYCNRDIGGSSVLDDYWGQGTQVTVSS | low polyreactivity
28 | QVQLVESGGGLVQAGVRLRLSCAASGFTFAGTAMGWYRQAPGKERELVAAITSGGSTYYADSVKGRFTISRDNAKNTVYLQMNSLKPEDTAVYYCAALVFRGRSFTHDYWGQGTQVTLSS | high polyreactivity
29 | QVQLVESGGCLVQAGGSLRLSCAASGFIIRYYAMGWYRQAPGKERELDAAITRGGSTYYADSVKGRFRISRDNAKNTVYLQMNSLNPEDTAVYYCAARLYTQYYYWGQGTQVNVSS | high polyreactivity
30 | QVQLVESGGGLVQAGGSLRLSSAASGSIFGANAIGWYRQAPGKERELVAAISRRGRSTYYADSVKGRFTISRDNAKYTVYLQLNSLKPEDTAVYYSAAKRPQYYVQYGYWGQGTQVTVSS | high polyreactivity
31 | QVQLVESGGGLVQAGGSLRLSCAASGYTFEYYAMGWYRQAPGKERELVAAISWSGGDTYYADSVKGRFTISRDNAKNTVYLQMNSLKPEDTAVYYCNADLYNYFYYANWYGAYDYWGQGTQVTVSS | low polyreactivity
32 | QVQLVESGGGLVQAGGSLRLSCAASGRILRYYAMGWYRQAPGKERELVASITSGGSTYYADSVKGRFTISRDNAKNTVYLQMNSLKQEDTAVYYCAADPVYLKKLLYYVGQAYYYWGQGTQVTVSS | high polyreactivity
33 | QVQLVESGGGLVQSGGSLRLSCADSVRTFNYYAMGWYRQAPGKERELVATISWSGVSTRYADSVKGRFTISRDNEKNTVYLQMNSLKPEDTAVYYCNAGYSKRSFYSAYGYWGQGTQVTVSS | high polyreactivity
34 | QVQLVESGGGLVQAGGSLRLSCAPSGSTFQYNAMGWYRQAPGKEREFVAAISWRGGNTYYADSVKGRFTISRDNAKNTVYLQMNSLKPEDTAVYYCAAGRQRYAFKYYYWGQGTQVTVSS | high polyreactivity
35 | QVQLVESGGGLDQAGGSLRLSCAASGSTFVWNAMGWYRHAPGKERELVAAISSSGGSTYYADSVKGRFTISRDNAKNTVYLQMNSLKPEDTAVYYCAKGYYVRMDWGQGTQVTVSS | high polyreactivity
36 | QVQLVESGGGLVQAGGSLRLSCAASGGILDTYAMGWYRQAPGKERELVAAITSGGNTNYADSVKGRFTISRDNAKNTVYLQMNSLKPEDSAVYYCNVVTWYYVFRPWEYEYWGQGTQVTVSS | low polyreactivity
37 | QVQLVESGGGLVQAGGSLRLSCAASGSIFRYAMGWYRQAPGKERELVATISESGGRTYYADSVKGRFTISRDNANNTVYLQMNSLKPEDTAVYYCAADLKYYYGYRPWFQGGYWGQGTQVTVSS | low polyreactivity
38 | QVQLVESGGGLVQAGGSLRLSCAASGRTGYMGWYRQAPGKERELVAAITSRGGSTYYADSVKGRFTISRDNAKNTVYLQMNSLKPEDTAVYYCAAPAYHKRTSRGDYWGQGTQVTVSS | low polyreactivity
39 | QVQLVESWGGLVQAGGSLRISCAASGRTFVRNALGWYRHAPGKEREMVAGITRSGGSTYYADSVKGRFTISRDNAKNTVYLQMNSLKPEDTAVYYCATQYRYYNHFVTPFTRYGYWGQGTQLTVSS | high polyreactivity
40 | QVQLVESGGGLVQAGGSLRLSCAAYGFIIARNAMGWYRQAPGKERELVAAISAAGGRTYYADSVKGRFTISRDNAKITVYFQMNSLKPEDTAVYYCAARRDGRCGSYNYWGQGTQVTVSS | high polyreactivity
41 | QVQLVESGGGLVQAGGSLRLSCAASGIFSIYAMGRYRQAPGKERELVAAITSGGGRTYYADSVKGRFTISRDNAKNTVYLQMNSLKPEDTAVYYCARVQRGDYDYWGQGTQVTVTS | high polyreactivity
42 | QVQLVESGGGLVQAGGSLRLSCAASGFTCKKYAMGWSRQAPGKERDLVASITWYGGSTSYADSVKGRFTISRDNANNTVYLQMNSLKPEDTAVYYCAAATFVYRLRYNRFDYWGQGTQVTVSS | high polyreactivity
43 | QVQLVESGGGLVQAGGSLRLSCAASGIFYYNAMGWNIQAPGKERELVAAISYSGGRTYYADSVKGRFTISRDNAKNTVYLQMNSLKPEDTAVYYCNAAARYGRLGGDYWGQGTQVTVSS | high polyreactivity
